Experimental findings from US20180273587A1 (AILERON THERAPEUTICS, published 2018) are described below.

Test in all cases: Ki table, method not stated
In one experiment the target is BCL-XL (UniProt Q07817 1-209).
The target in a further experiment is T1, MCL-1 (UniProt Q07820 172-327, limits assumed).
T1 construct: also called Myeloid cell leukemia 1

The target in the next experiment is BCL-2 (UniProt P10415 1-217, limits assumed).

Starred links: 1 amine or outer side, 2 acyl side, 3 side chain; linkers in the order of their positions; H or OH if unused. Positions of bridges follow the written chain, without caps; N, C: chain ends. Non-standard residues stand in square brackets, D forms with d. Gly(1-adamantyl) = N[C@H](C(=O)O)C12CC3CC(CC(C3)C1)C2; Phe(4-CF3) = N[C@@H](Cc1ccc(C(F)(F)F)cc1)C(=O)O; Phe(4-tBu) = CC(C)(C)c1ccc(C[C@H](N)C(=O)O)cc1; hhL = hhLeu, CC(C)CCC[C@H](N[*:1])C(=O)[*:2]; 2Nal = N[C@@H](Cc1ccc2ccccc2c1)C(=O)O; Igl = N[C@H](C(=O)O)C1Cc2ccccc2C1; hCha = N[C@@H](CCC1CCCCC1)C(=O)O; hPhe = N[C@@H](CCc1ccccc1)C(=O)O; R8 = C=CCCCCCC[C@@](C)(N)C(=O)O; Cha = N[C@@H](CC1CCCCC1)C(=O)O; Cba = N[C@@H](CC1CCC1)C(=O)O; S5 = C=CCCC[C@](C)(N)C(=O)O

BCL-2, sequence (P10415 1-217 limits assumed): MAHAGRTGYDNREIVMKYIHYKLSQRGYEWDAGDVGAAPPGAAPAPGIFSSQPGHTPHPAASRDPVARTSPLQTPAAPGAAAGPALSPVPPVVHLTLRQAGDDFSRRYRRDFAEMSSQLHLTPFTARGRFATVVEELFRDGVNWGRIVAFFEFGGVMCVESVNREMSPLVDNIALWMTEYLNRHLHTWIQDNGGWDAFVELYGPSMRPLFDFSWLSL
BCL-XL, sequence (Q07817 1-209): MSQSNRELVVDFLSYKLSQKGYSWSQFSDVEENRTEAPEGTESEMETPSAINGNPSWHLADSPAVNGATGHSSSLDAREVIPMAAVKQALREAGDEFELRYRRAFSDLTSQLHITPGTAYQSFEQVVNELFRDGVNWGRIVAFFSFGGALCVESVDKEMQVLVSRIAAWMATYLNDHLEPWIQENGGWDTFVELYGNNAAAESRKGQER
T1 sequence (Q07820 172-327 limits assumed): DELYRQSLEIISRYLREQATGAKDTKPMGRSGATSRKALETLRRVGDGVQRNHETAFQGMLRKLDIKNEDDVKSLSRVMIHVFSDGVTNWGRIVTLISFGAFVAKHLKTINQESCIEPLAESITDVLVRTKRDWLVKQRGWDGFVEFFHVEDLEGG

B1: SEQ ID NO: 1677 (peptide)
peptide: Ac-IW[Cha]AQALR[R8]IGDAFN[S5]YYA-NH2
modifications: staple 9-16
SMILES: CC[C@H](C)[C@H](NC(C)=O)C(=O)N[C@@H](Cc1c[nH]c2ccccc12)C(=O)N[C@@H](CC1CCCCC1)C(=O)N[C@@H](C)C(=O)N[C@@H](CCC(N)=O)C(=O)N[C@@H](C)C(=O)N[C@@H](CC(C)C)C(=O)N[C@@H](CCCNC(=N)N)C(=O)N[C@]1(C)CCCCCCC=CCCC[C@@](C)(C(=O)N[C@@H](Cc2ccc(O)cc2)C(=O)N[C@@H](Cc2ccc(O)cc2)C(=O)N[C@@H](C)C(N)=O)NC(=O)[C@H](CC(N)=O)NC(=O)[C@H](Cc2ccccc2)NC(=O)[C@H](C)NC(=O)[C@H](CC(=O)O)NC(=O)CNC(=O)[C@H]([C@@H](C)CC)NC1=O
notes: also called Ac-IWChaAQALR$r8IGDAFN$YYA-NH2
On to B1, for which the inhibition constant Ki came to 0.0144 µM with BCL-XL, 0.0438 µM with MCL-1 and 0.105 µM with BCL-2.

B2: SEQ ID NO: 1695 (peptide)
peptide: Ac-IWIAQA[Phe(4-tBu)]R[R8]IGDAFN[S5]YYA-NH2
modifications: staple 9-16
SMILES: CC[C@H](C)[C@H](NC(C)=O)C(=O)N[C@@H](Cc1c[nH]c2ccccc12)C(=O)N[C@H](C(=O)N[C@@H](C)C(=O)N[C@@H](CCC(N)=O)C(=O)N[C@@H](C)C(=O)N[C@@H](Cc1ccc(C(C)(C)C)cc1)C(=O)N[C@@H](CCCNC(=N)N)C(=O)N[C@]1(C)CCCCCCC=CCCC[C@@](C)(C(=O)N[C@@H](Cc2ccc(O)cc2)C(=O)N[C@@H](Cc2ccc(O)cc2)C(=O)N[C@@H](C)C(N)=O)NC(=O)[C@H](CC(N)=O)NC(=O)[C@H](Cc2ccccc2)NC(=O)[C@H](C)NC(=O)[C@H](CC(=O)O)NC(=O)CNC(=O)[C@H]([C@@H](C)CC)NC1=O)[C@@H](C)CC
notes: also called Ac-IWIAQAF4tBuR$r8IGDAFN$YYA-NH2
Turning to B2, the figures for the inhibitory constant (Ki) in the experiment with BCL-XL, with MCL-1 and with BCL-2 were 0.0127 µM, 0.169 µM and 0.288 µM, respectively.

B3: SEQ ID NO: 1696 (peptide)
peptide: Ac-IWIAQA[2Nal]R[R8]IGDAFN[S5]YYA-NH2
modifications: staple 9-16
SMILES: CC[C@H](C)[C@H](NC(C)=O)C(=O)N[C@@H](Cc1c[nH]c2ccccc12)C(=O)N[C@H](C(=O)N[C@@H](C)C(=O)N[C@@H](CCC(N)=O)C(=O)N[C@@H](C)C(=O)N[C@@H](Cc1ccc2ccccc2c1)C(=O)N[C@@H](CCCNC(=N)N)C(=O)N[C@]1(C)CCCCCCC=CCCC[C@@](C)(C(=O)N[C@@H](Cc2ccc(O)cc2)C(=O)N[C@@H](Cc2ccc(O)cc2)C(=O)N[C@@H](C)C(N)=O)NC(=O)[C@H](CC(N)=O)NC(=O)[C@H](Cc2ccccc2)NC(=O)[C@H](C)NC(=O)[C@H](CC(=O)O)NC(=O)CNC(=O)[C@H]([C@@H](C)CC)NC1=O)[C@@H](C)CC
notes: also called Ac-IWIAQA2NalR$r8IGDAFN$YYA-NH2
B3: the results for the inhibition constant (Ki) with BCL-XL, with MCL-1 and with BCL-2 were 0.0173 µM, 0.12 µM and 0.234 µM, respectively.

B4: SEQ ID NO: 1680 (peptide)
peptide: Ac-IW[hCha]AQALR[R8]IGDAFN[S5]YYA-NH2
modifications: staple 9-16
SMILES: CC[C@H](C)[C@H](NC(C)=O)C(=O)N[C@@H](Cc1c[nH]c2ccccc12)C(=O)N[C@@H](CCC1CCCCC1)C(=O)N[C@@H](C)C(=O)N[C@@H](CCC(N)=O)C(=O)N[C@@H](C)C(=O)N[C@@H](CC(C)C)C(=O)N[C@@H](CCCNC(=N)N)C(=O)N[C@]1(C)CCCCCCC=CCCC[C@@](C)(C(=O)N[C@@H](Cc2ccc(O)cc2)C(=O)N[C@@H](Cc2ccc(O)cc2)C(=O)N[C@@H](C)C(N)=O)NC(=O)[C@H](CC(N)=O)NC(=O)[C@H](Cc2ccccc2)NC(=O)[C@H](C)NC(=O)[C@H](CC(=O)O)NC(=O)CNC(=O)[C@H]([C@@H](C)CC)NC1=O
notes: also called Ac-IWhChaAQALR$r8IGDAFN$YYA-NH2
Consider B4, for which the figures for the Ki with BCL-XL, in the experiment with MCL-1 and in the experiment with BCL-2 were 0.0131 µM, 0.0222 µM and 0.182 µM, respectively.

B5: SEQ ID NO: 1683 (peptide)
peptide: Ac-IW[Phe(4-CF3)]AQALR[R8]IGDAFN[S5]YYA-NH2
modifications: staple 9-16
SMILES: CC[C@H](C)[C@H](NC(C)=O)C(=O)N[C@@H](Cc1c[nH]c2ccccc12)C(=O)N[C@@H](Cc1ccc(C(F)(F)F)cc1)C(=O)N[C@@H](C)C(=O)N[C@@H](CCC(N)=O)C(=O)N[C@@H](C)C(=O)N[C@@H](CC(C)C)C(=O)N[C@@H](CCCNC(=N)N)C(=O)N[C@]1(C)CCCCCCC=CCCC[C@@](C)(C(=O)N[C@@H](Cc2ccc(O)cc2)C(=O)N[C@@H](Cc2ccc(O)cc2)C(=O)N[C@@H](C)C(N)=O)NC(=O)[C@H](CC(N)=O)NC(=O)[C@H](Cc2ccccc2)NC(=O)[C@H](C)NC(=O)[C@H](CC(=O)O)NC(=O)CNC(=O)[C@H]([C@@H](C)CC)NC1=O
notes: also called Ac-IWF4CF3AQALR$r8IGDAFN$YYA-NH2
As for B5, the inhibition constant (Ki) with BCL-XL stood at 0.0091 µM; with MCL-1, 0.0767 µM; with BCL-2, 0.237 µM.

B6: SEQ ID NO: 1682 (peptide)
peptide: Ac-IW[Igl]AQALR[R8]IGDAFN[S5]YYA-NH2
modifications: staple 9-16
SMILES: CC[C@H](C)[C@H](NC(C)=O)C(=O)N[C@@H](Cc1c[nH]c2ccccc12)C(=O)N[C@H](C(=O)N[C@@H](C)C(=O)N[C@@H](CCC(N)=O)C(=O)N[C@@H](C)C(=O)N[C@@H](CC(C)C)C(=O)N[C@@H](CCCNC(=N)N)C(=O)N[C@]1(C)CCCCCCC=CCCC[C@@](C)(C(=O)N[C@@H](Cc2ccc(O)cc2)C(=O)N[C@@H](Cc2ccc(O)cc2)C(=O)N[C@@H](C)C(N)=O)NC(=O)[C@H](CC(N)=O)NC(=O)[C@H](Cc2ccccc2)NC(=O)[C@H](C)NC(=O)[C@H](CC(=O)O)NC(=O)CNC(=O)[C@H]([C@@H](C)CC)NC1=O)C1Cc2ccccc2C1
notes: also called Ac-IWIglAQALR$r8IGDAFN$YYA-NH2
For B6, the inhibitory constant (Ki) in the experiment with BCL-XL was found to be 0.145 µM; with MCL-1, 0.0128 µM; with BCL-2, 0.246 µM.

B7: SEQ ID NO: 1685 (peptide)
peptide: Ac-IW[2Nal]AQALR[R8]IGDAFN[S5]YYA-NH2
modifications: staple 9-16
SMILES: CC[C@H](C)[C@H](NC(C)=O)C(=O)N[C@@H](Cc1c[nH]c2ccccc12)C(=O)N[C@@H](Cc1ccc2ccccc2c1)C(=O)N[C@@H](C)C(=O)N[C@@H](CCC(N)=O)C(=O)N[C@@H](C)C(=O)N[C@@H](CC(C)C)C(=O)N[C@@H](CCCNC(=N)N)C(=O)N[C@]1(C)CCCCCCC=CCCC[C@@](C)(C(=O)N[C@@H](Cc2ccc(O)cc2)C(=O)N[C@@H](Cc2ccc(O)cc2)C(=O)N[C@@H](C)C(N)=O)NC(=O)[C@H](CC(N)=O)NC(=O)[C@H](Cc2ccccc2)NC(=O)[C@H](C)NC(=O)[C@H](CC(=O)O)NC(=O)CNC(=O)[C@H]([C@@H](C)CC)NC1=O
notes: also called Ac-IW2NalAQALR$r8IGDAFN$YYA-NH2
On to B7, for which the inhibitory constant (Ki) in the experiment with BCL-XL amounted to 0.151 µM; in the experiment with MCL-1, 0.163 µM; in the experiment with BCL-2 it was 0.265 µM.

B8: SEQ ID NO: 1679 (peptide)
peptide: Ac-IW[Gly(1-adamantyl)]AQALR[R8]IGDAFN[S5]YYA-NH2
modifications: staple 9-16
SMILES: CC[C@H](C)[C@H](NC(C)=O)C(=O)N[C@@H](Cc1c[nH]c2ccccc12)C(=O)N[C@H](C(=O)N[C@@H](C)C(=O)N[C@@H](CCC(N)=O)C(=O)N[C@@H](C)C(=O)N[C@@H](CC(C)C)C(=O)N[C@@H](CCCNC(=N)N)C(=O)N[C@]1(C)CCCCCCC=CCCC[C@@](C)(C(=O)N[C@@H](Cc2ccc(O)cc2)C(=O)N[C@@H](Cc2ccc(O)cc2)C(=O)N[C@@H](C)C(N)=O)NC(=O)[C@H](CC(N)=O)NC(=O)[C@H](Cc2ccccc2)NC(=O)[C@H](C)NC(=O)[C@H](CC(=O)O)NC(=O)CNC(=O)[C@H]([C@@H](C)CC)NC1=O)C12CC3CC(CC(C3)C1)C2
notes: also called Ac-IWAdmAQALR$r8IGDAFN$YYA-NH2
B8: the figures for the inhibition constant Ki with BCL-XL, with MCL-1 and in the experiment with BCL-2 were 0.0073 µM, 0.0216 µM and 0.059 µM, respectively.

B9: SEQ ID NO: 1698 (peptide)
peptide: Ac-IWIAQALR[R8][Cba]GDAFN[S5]YYA-NH2
modifications: staple 9-16
SMILES: CC[C@H](C)[C@H](NC(C)=O)C(=O)N[C@@H](Cc1c[nH]c2ccccc12)C(=O)N[C@H](C(=O)N[C@@H](C)C(=O)N[C@@H](CCC(N)=O)C(=O)N[C@@H](C)C(=O)N[C@@H](CC(C)C)C(=O)N[C@@H](CCCNC(=N)N)C(=O)N[C@]1(C)CCCCCCC=CCCC[C@@](C)(C(=O)N[C@@H](Cc2ccc(O)cc2)C(=O)N[C@@H](Cc2ccc(O)cc2)C(=O)N[C@@H](C)C(N)=O)NC(=O)[C@H](CC(N)=O)NC(=O)[C@H](Cc2ccccc2)NC(=O)[C@H](C)NC(=O)[C@H](CC(=O)O)NC(=O)CNC(=O)[C@H](CC2CCC2)NC1=O)[C@@H](C)CC
In the case of B9, the figures for the Ki with BCL-XL, in the experiment with MCL-1 and in the experiment with BCL-2 were 0.0275 µM, 0.0266 µM and 0.089 µM, respectively.

B10: SEQ ID NO: 1678 (peptide)
peptide: Ac-IW[hhL]AQALR[R8]IGDAFN[S5]YYA-NH2
modifications: staple 9-16
SMILES: CC[C@H](C)[C@H](NC(C)=O)C(=O)N[C@@H](Cc1c[nH]c2ccccc12)C(=O)N[C@@H](CCCC(C)C)C(=O)N[C@@H](C)C(=O)N[C@@H](CCC(N)=O)C(=O)N[C@@H](C)C(=O)N[C@@H](CC(C)C)C(=O)N[C@@H](CCCNC(=N)N)C(=O)N[C@]1(C)CCCCCCC=CCCC[C@@](C)(C(=O)N[C@@H](Cc2ccc(O)cc2)C(=O)N[C@@H](Cc2ccc(O)cc2)C(=O)N[C@@H](C)C(N)=O)NC(=O)[C@H](CC(N)=O)NC(=O)[C@H](Cc2ccccc2)NC(=O)[C@H](C)NC(=O)[C@H](CC(=O)O)NC(=O)CNC(=O)[C@H]([C@@H](C)CC)NC1=O
notes: also called Ac-IWhhLAQALR$r8IGDAFN$YYA-NH2
For the molecule B10, the Ki in the experiment with BCL-XL is 0.0119 µM; with MCL-1, 0.0212 µM; in the experiment with BCL-2, 0.161 µM.

B11: SEQ ID NO: 1681 (peptide)
peptide: Ac-IW[hPhe]AQALR[R8]IGDAFN[S5]YYA-NH2
modifications: staple 9-16
SMILES: CC[C@H](C)[C@H](NC(C)=O)C(=O)N[C@@H](Cc1c[nH]c2ccccc12)C(=O)N[C@@H](CCc1ccccc1)C(=O)N[C@@H](C)C(=O)N[C@@H](CCC(N)=O)C(=O)N[C@@H](C)C(=O)N[C@@H](CC(C)C)C(=O)N[C@@H](CCCNC(=N)N)C(=O)N[C@]1(C)CCCCCCC=CCCC[C@@](C)(C(=O)N[C@@H](Cc2ccc(O)cc2)C(=O)N[C@@H](Cc2ccc(O)cc2)C(=O)N[C@@H](C)C(N)=O)NC(=O)[C@H](CC(N)=O)NC(=O)[C@H](Cc2ccccc2)NC(=O)[C@H](C)NC(=O)[C@H](CC(=O)O)NC(=O)CNC(=O)[C@H]([C@@H](C)CC)NC1=O
notes: also called Ac-IWhFAQALR$r8IGDAFN$YYA-NH2
As for B11, the values for the Ki with BCL-XL, with MCL-1 and with BCL-2 were 0.0697 µM, 0.0531 µM and 0.221 µM, respectively.

As usually defined, the Ki is the equilibrium dissociation constant of an inhibitor or competing ligand from its target. Read a high Ki as lower affinity.
